Laboratory results: US5919635A (ZymoGenetics, Inc., priority 1995, dated 1999)

How the values were obtained:
[1] = molecular target: T1, rat liver membranes (glucagon receptor) (Rattus norvegicus, UniProt P30082); assay: Competition binding / Scatchard analysis with ^125 I-glucagon on rat liver membranes; conditions: 30 minutes at 30° C., read-out: apparent Kd
T1 construct: Two batches of liver membranes were each prepared from approximately 80 gm of liver; from tissue; host or cells: rat liver membranes
Description: Membranes from the pLJ4 BHK transfectants were compared with rat liver membrane preparations for the ability to bind ^125 I-glucagon. Membranes were prepared essentially described by Rodbell et al. (J. Biol Chem. 246:1861-1871, 1971, which is incorporated by reference herein in its entirety). Two batches of liver membranes were each prepared from approximately 80 gm of liver from 12 to 16 decapitated young female rats. The livers were removed quickly and placed into an iced beaker. The livers were separated into ten-gram portions. The portions were minced with scissors, and connective tissue was removed during the mincing procedure. The portions were separately homogenized in a Dounce homogenizer. […] The concentration of the solution was adjusted to 44.0%+/-0.1% using 69% sucrose or water as measured by a refractometer (Bausch & Lomb, Rochester, N.Y.). […]
The supernatant was carefully decanted and discarded. […] The absorbance was read in 1 cm cuvettes to determine protein concentration. Protein concentration was determined using the formula: [formula] […]
To each tube 100 μl of 2× binding buffer; 20 μl of ^125 I-glucagon (Amersham); 20 μl of 1 mM NaHCO3; 20 μl 10 mM HOAc, 0.5% BSA (Novo Nordisk N/A, Bagsvaerd, Denmark); and 40 μl of distilled water were added. […] The supernatants from each sample were aspirated, and the pellets were counted.

[2] = molecular target: T2, cloned receptor (rat glucagon receptor, pLJ4) (Rattus norvegicus, UniProt P30082); assay: Competition binding / Scatchard analysis with ^125 I-glucagon on membranes of pLJ4 BHK transfectants
T2 construct: pLJ4 contained an approximately 2 kb insert encoding a 485 amino acid protein; expressed in transfected cells; host or cells: BHK570
Description: Membranes from the pLJ4 BHK transfectants were compared with rat liver membrane preparations for the ability to bind ^125 I-glucagon. Membranes were prepared essentially described by Rodbell et al. (J. Biol Chem. 246:1861-1871, 1971, which is incorporated by reference herein in its entirety). Two batches of liver membranes were each prepared from approximately 80 gm of liver from 12 to 16 decapitated young female rats. The livers were removed quickly and placed into an iced beaker. The livers were separated into ten-gram portions. The portions were minced with scissors, and connective tissue was removed during the mincing procedure. The portions were separately homogenized in a Dounce homogenizer. To each portion, 25 ml of Medium (Table 2) was added to the minced tissue in the homogenizer, and the tissue was homogenized in an ice bucket with eight vigorous strokes of the loose pestle. After homogenization, the homogenates were pooled into 450 ml of cold Medium (Table 2). The pooled homogenates were stirred for 3 minutes and filtered through two layers of cheesecloth followed by filtering through four layers of cheesecloth. The homogenates were then centrifuged for 30 minutes at 1500×g at 4° C. The supernatants were discarded, and the pellets were pooled into a clean Dounce homogenizer. The pellets were resuspended with three gentle strokes of the loose pestle. The resuspended pellets were decanted into a 250 ml graduate containing 62 ml of 69% Sucrose Solution (Table 2). Distilled water was added to a final volume of 110 ml, and the mixture was thoroughly mixed and kept cold. The concentration of the solution was adjusted to 44.0%+/-0.1% using 69% sucrose or water as measured by a refractometer (Bausch & Lomb, Rochester, N.Y.). […]
To each tube 100 μl of 2× binding buffer; 20 μl of ^125 I-glucagon (Amersham); 20 μl of 1 mM NaHCO3; 20 μl 10 mM HOAc, 0.5% BSA (Novo Nordisk N/A, Bagsvaerd, Denmark); and 40 μl of distilled water were added. […] The supernatants from each sample were aspirated, and the pellets were counted. […]

[3] = test system: Human Glucagon Receptor (pLJ6') in COS 7 cells; assay: In situ ^125 I-glucagon binding with emulsion autoradiography, pLJ6'-transfected COS 7 cells; conditions: 72 hours after transfection
Description: To prepare the transfectants for the ^125 I-glucagon binding assay, the spent media were aspirated from the cells, and the cells were washed three times with cold (4° C.) PBS. After the final wash, the cells were covered with Binding Media (Table 2) and incubated for ten minutes at room temperature. The media were replaced with 0.5 ml of Binding Media containing 0.5 nM ^125 I-glucagon (Amersham receptor grade, specific activity 2000 Ci/mmole; Amersham). The cells were then rocked at 30° C. for one hour. […] The media were aspirated from the cells, and the cells were washed three times with cold (4° C.) PBS. After the final wash, the cells were fixed with 1 ml of 2.5% glutaraldehyde in PBS at room temperature for 20 minutes. The glutaraldehyde was removed, and the cells were rinsed three time with PBS. The slides were air dried for one hour at room temperature, dipped in liquid photographic emulsion (Eastman Kodak Co., Rochester, N.Y.) according the manufacturer's directions, and dried at room temperature in the dark for at least 30 minutes. The slides were then plated in a light-proof box for 72 hours at 4° C.
Plasmid pLJ6' was transfected into COS 7 cells using a DEAE-dextran procedure described above. The cells were grown on glass chamber slides (as described in Example 3) for 72 hours after transfection.

T2 sequence (P30082 27-485): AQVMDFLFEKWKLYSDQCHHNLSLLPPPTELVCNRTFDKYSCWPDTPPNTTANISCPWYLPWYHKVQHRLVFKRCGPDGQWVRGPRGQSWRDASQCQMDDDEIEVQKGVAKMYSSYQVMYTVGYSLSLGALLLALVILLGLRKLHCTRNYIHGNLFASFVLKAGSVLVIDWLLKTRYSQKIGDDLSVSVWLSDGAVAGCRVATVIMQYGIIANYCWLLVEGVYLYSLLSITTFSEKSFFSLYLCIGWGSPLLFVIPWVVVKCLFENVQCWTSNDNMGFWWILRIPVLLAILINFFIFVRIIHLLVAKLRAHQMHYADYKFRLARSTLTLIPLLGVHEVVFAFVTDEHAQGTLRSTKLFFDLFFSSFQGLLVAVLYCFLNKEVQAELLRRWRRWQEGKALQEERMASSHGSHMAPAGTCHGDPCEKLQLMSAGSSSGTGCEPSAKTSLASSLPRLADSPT
T1 sequence (P30082 27-485): as above

With “glucagon: 29 amino acid hormone produced by the alpha cells of pancreatic islets; human glucagon (Sigma)” the Kd [1] was 49 nM, the Kd ([2]; Scatchard analysis, cloned receptor, BHK transfectant membranes, 30 minutes at 30° C., read-out: apparent Kd) was 50 nM and the “ability to compete for ^125 I-glucagon binding” value ([2]; micromolar amounts (Table 7: 1 μM glucagon and des-His^1 [Glu^9]glucagon amide)) was “able to compete”. For the same substance, the “cells transfected with pLJ6' that bound glucagon in a specific fashion” value [3] was “Greater than 50%”.
